This is an account of results in patent US20090136503A1 (BEIJING COTIMES BIOTECH, published 2009).

Experiment [1] deals with TRAIL-R1 on the surface of human tumor cells (human, UniProt O00220 24-468). Description: cell-based or functional assay.
For experiment [2], the target named is Human IgG1 (control antigen) (human). As to the kind of experiment: ELISA; human IgG1 captured on goat anti-human IgG, antibody at 2 µg/ml.
Experiment [3] has as its target T1, TRAIL-R3-Fc fusion protein (human, UniProt O14798 26-221, limits assumed).
T1 construct: The origin of the protein is not described; also called TRAIL-R3-Fc fusion antigen; not shown: human IgG1 Fc
T1 sequence (looked up): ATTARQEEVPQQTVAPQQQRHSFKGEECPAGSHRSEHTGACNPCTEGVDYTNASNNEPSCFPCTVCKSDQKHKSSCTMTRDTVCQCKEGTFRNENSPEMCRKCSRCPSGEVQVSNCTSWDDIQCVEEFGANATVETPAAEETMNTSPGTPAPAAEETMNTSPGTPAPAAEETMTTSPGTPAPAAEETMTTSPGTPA
As to the kind of experiment: ELISA: plate coated with TRAIL-R3-Fc at 1 µg/ml, HRP goat anti-mouse IgG, TMB. In general terms: ELISA stands for enzyme-linked immunosorbent assay.

Experiment [4] addresses T2, TRAIL-R4-Fc fusion protein (human, UniProt Q9UBN6 56-211).
T2 construct: The origin of the protein is not described; also called TRAIL-R4-Fc fusion antigen; not shown: human IgG1 Fc
T2 sequence (looked up): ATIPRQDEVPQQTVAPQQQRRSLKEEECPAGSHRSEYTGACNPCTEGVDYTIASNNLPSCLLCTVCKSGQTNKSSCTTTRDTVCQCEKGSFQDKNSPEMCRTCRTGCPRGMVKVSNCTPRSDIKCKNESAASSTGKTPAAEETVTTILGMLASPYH
Description: ELISA: plate coated with TRAIL-R4-Fc at 1 µg/ml, HRP goat anti-mouse IgG, TMB.

For experiment [5], the target named is BSA (bovine serum albumin), negative control (bovine, UniProt P02769 25-607). As to the kind of experiment: ELISA: plate coated with BSA (control) at 1 µg/ml, HRP goat anti-mouse IgG, TMB.
In experiment [6] the target is T3, TRAIL-R2 on the surface of human tumor cells (human, UniProt O14763 56-440).
T3 construct: whole, on cells; also called DR5; CD262
Description: flow cytometry on Jurkat cells (said to express TRAIL-R2 only, not TRAIL-R1), PE goat anti-mouse IgG1. A general note: Flow cytometry measures light scatter and fluorescence of single cells or particles in a stream.

BSA (bovine serum albumin), negative control, sequence (P02769 25-607 limits assumed): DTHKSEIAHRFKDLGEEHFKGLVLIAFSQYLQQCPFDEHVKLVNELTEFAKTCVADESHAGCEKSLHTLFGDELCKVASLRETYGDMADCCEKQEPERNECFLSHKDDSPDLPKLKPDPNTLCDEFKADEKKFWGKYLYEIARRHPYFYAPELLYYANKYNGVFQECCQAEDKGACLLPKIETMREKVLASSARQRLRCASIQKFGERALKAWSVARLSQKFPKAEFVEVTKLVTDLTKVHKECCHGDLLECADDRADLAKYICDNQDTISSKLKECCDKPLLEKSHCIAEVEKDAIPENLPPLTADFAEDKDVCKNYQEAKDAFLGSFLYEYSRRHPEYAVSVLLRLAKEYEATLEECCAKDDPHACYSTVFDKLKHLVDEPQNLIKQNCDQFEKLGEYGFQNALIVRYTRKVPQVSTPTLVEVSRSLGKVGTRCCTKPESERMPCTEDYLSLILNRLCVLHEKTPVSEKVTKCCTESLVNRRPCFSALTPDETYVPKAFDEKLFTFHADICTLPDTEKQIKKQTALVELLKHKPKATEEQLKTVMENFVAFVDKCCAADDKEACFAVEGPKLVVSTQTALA

B1: CTB007 murine monoclonal antibody against TRAIL-R1 (hybridoma CGMCC 1733) (antibody, V domains shown)
VH: EVQLQQSGAELVKPGASVKLSCTASGFNIKDTYMHWVKQRPEQGLEWIGRIDPANGNTKYDPKFQGKATITADTSSNTAYLQLSSLTSEDTAVYYCAYYYVSNAWFTYWGQGTLVTVSA
VL: DIQMTQSPASLSVSVGETVTITCRASENIYSNLEWYQQKQGKSPQLLVYAATNLADGVPSRFSGSGSGTQYSLKINSLQSEDFGSYYCQHFWGTWTFGGGTKLEIK
notes: Murine monoclonal antibody; also called Anti-TRAIL-R1 (CTB007); CTB007-HRP
For the molecule B1, in experiment [1], the “IC50 (ng/ml), killing of Carov 3 cells, ATPLite cell viability” value worked out at 29.5 ng/mL; the “IC50 (ng/ml), killing of Colo205 cells, ATPLite cell viability” value was 6.2 ng/mL; the “IC50 (ng/ml), killing of Du145 cells, ATPLite cell viability” value was 31.2 ng/mL; the “IC50 (ng/ml), killing of H-2122 cells, ATPLite cell viability” value is 25.4 ng/mL. Further, in experiment [1], the “IC50 (ng/ml), killing of MDA231 cells, ATPLite cell viability” value is 8.2 ng/mL and the “IC50 (ng/ml), killing of MIAcap cells, ATPLite cell viability” value was found to be 9.5 ng/mL. Also, in experiment [2], the OD 450 nm/650 nm worked out at 0.026 OD. In experiment [3], the binding result was “no binding (tested: 1000 ng/ml)”. For the same molecule, in experiment [4], the binding result was “no binding (tested: 1000 ng/ml)”. Moreover, the binding result in experiment [5] is listed as “no binding (tested: 1000 ng/ml)”. Besides, in experiment [6], the binding result is listed as “no binding”.
